This note sets out measurements from patent US20210038737A1 (OHIO STATE INNOVATION FOUNDATION, published 2021).

The labels stand for the following.
B1: peptide 15: Ac-Cys-Arg-Arg-Arg-Phe-(2-Nal)-Gln-Cys-Thr-Arg-Tle-OH (peptide)
peptide: Ac-CRRRF[2Nal]QCTR[Tle]-OH
modifications: cysteine pairing not given here
notes: Synthetic peptide; assayed with DTT (reduced, linear); also called Compd 15; Compound 15
B2: peptide 14: Ac-Cys-Arg-Arg-Arg-Phe-(1-Nal)-Gln-Cys-Thr-Arg-Tle-OH (peptide)
peptide: Ac-CRRRF[1Nal]QCTR[Tle]-OH
modifications: cysteine pairing not given here
notes: Synthetic peptide; assayed with DTT (reduced, linear); also called Compd 14; Compound 14
B3: peptide 3: Ac-Arg-Arg-Phe-Trp-Gln-Cys-Thr-Arg-Cha-OH (peptide)
peptide: Ac-RRFWQCTR[Cha]-OH
SMILES: CC(=O)N[C@@H](CCCNC(=N)N)C(=O)N[C@@H](CCCNC(=N)N)C(=O)N[C@@H](Cc1ccccc1)C(=O)N[C@@H](Cc1c[nH]c2ccccc12)C(=O)N[C@@H](CCC(N)=O)C(=O)N[C@@H](CS)C(=O)N[C@H](C(=O)N[C@@H](CCCNC(=N)N)C(=O)N[C@@H](CC1CCCCC1)C(=O)O)[C@@H](C)O
notes: Synthetic peptide; also called Compd 3; Compound 3
B4: peptide 13: Ac-Arg-Arg-Phe-Trp-Cys-Cys-Thr-Arg-Tle-OH (peptide)
peptide: Ac-RRFWCCTR[Tle]-OH
modifications: cysteine pairing not given here
notes: Synthetic peptide; also called Compd 13; Compound 13
B5: peptide 7: Ac-Arg-Arg-Phe-Trp-Gln-Cys-Thr-Leu-Tle-OH (peptide)
peptide: Ac-RRFWQCTL[Tle]-OH
modifications: not fully specified; printed as Ac-Arg-Arg-Phe-Trp-Gln-Cys-Thr-Leu-Tle-OH
notes: Synthetic peptide; also called Compd 7; Compound 7
B6: peptide 2: Ac-Arg-Arg-Phe-Trp-Gln-Cys-Thr-Arg-Ile-OH (peptide)
peptide: Ac-RRFWQCTRI-OH
notes: Synthetic peptide; also called Compd 2; Compound 2
B7: peptide 12: Ac-Arg-Arg-Phe-Trp-(D-Cys)-Cys-Thr-Arg-Tle-OH (peptide)
peptide: Ac-RRFW[dC]CTR[Tle]-OH
modifications: cysteine pairing not given here
notes: Synthetic peptide; also called Compd 12; Compound 12
B8: peptide 11: Ac-Arg-Arg-Phe-Trp-(D-Pro)-Cys-Thr-Arg-Tle-OH (peptide)
peptide: Ac-RRFW[dP]CTR[Tle]-OH
SMILES: CC(=O)N[C@@H](CCCNC(=N)N)C(=O)N[C@@H](CCCNC(=N)N)C(=O)N[C@@H](Cc1ccccc1)C(=O)N[C@@H](Cc1c[nH]c2ccccc12)C(=O)N1CCC[C@@H]1C(=O)N[C@@H](CS)C(=O)N[C@H](C(=O)N[C@@H](CCCNC(=N)N)C(=O)N[C@H](C(=O)O)C(C)(C)C)[C@@H](C)O
notes: Synthetic peptide; also called Compd 11; Compound 11
B9: peptide 6: FITC-Cys-Arg-Arg-Arg-Phe-Trp-Gln-Cys-Thr-Arg-Tle-OH (peptide)
peptide: {FITC′}-CRRRFWQCTR[Tle]-OH
modifications: not fully specified; printed as FITC-Cys-Arg-Arg-Arg-Phe-Trp-Gln-Cys-Thr-Arg-Tle-OH; cysteine pairing not given here
notes: Synthetic labeled peptide; assayed with 2 mM TCEP (reduced, linear); also called Compd 6; Compound 6

Primed or numbered codes have the meaning given here. [ ]: non-standard residue; d: D form. 1Nal = N[C@@H](Cc1cccc2ccccc12)C(=O)O; 2Nal = N[C@@H](Cc1ccc2ccccc2c1)C(=O)O; FITC′ = fluorescein isothiocyanate; Cha = N[C@@H](CC1CCCCC1)C(=O)O; Tle = CC(C)(C)[C@H](N)C(=O)O

One assay has as its target T1, CAL PDZ domain (CALP5-His) (UniProt Q9HD26 288-371). Nature of the assay: FP competition, condition B: probe FAM-…-OH (100 nM) with 500 nM CALP5-His; competitor titrated. As for the experimental part: Serial dilutions of each competitor peptide were prepared in PBS and the incubation solution was added to each. The combined solutions were gently mixed for 1 h at RT after which 20 uL sample was pipetted into 384-well black-on-black microplates and fluorescence polarization was measured using a TECAN Infinite M1000 plate reader. Data was processed to determine IC₅₀ using GraphPad PRISM ver. 6.0.
One may read the IC50 as the point on the concentration scale where inhibition reaches its midpoint. High values mean weaker potency in that assay, low ones greater potency in that assay. On to B1, for which the IC50 was determined as 1.49 µM.
Same read-out and setting: the value for B2 was 1.77 µM.

Another assay addresses T1, CAL PDZ domain (CALP5-His). Put plainly: FP competition, condition A: probe peptide 26 (50 nM) with 100 nM CALP5-His; competitor titrated.
With B3, the IC50 was 7.88 µM.
B4 showed an IC50 of 8.01 µM.
Same read-out and setting: the value for B5 was 2.02 µM; that for B6 was 3.69 µM.
On the same count and under the same terms, the value for B7 was 10.3 µM; that for B8 was 7.39 µM.

A further assay deals with T1, CAL PDZ domain (CALP5-His). Put plainly: direct FP, condition C: 50 nM labeled peptide, CALP5-His titrated. As for the experimental part: Condition C (denoted with superscript ^c): 50 nM labeled peptide was incubated with 2 mM TCEP in PBS at pH 7.4 containing 0.01% Triton-X100. CALP5-His was serially diluted in PBS containing 0.01% Triton-X100 to which was then added the peptide and TCEP solution. This solution was mixed for 1 h at RT then 20 uL was pipetted into 384-well microplates and fluorescence polarization was measured using a TECAN Infinite M1000 plate reader. KD values were calculated using KaleidaGraph v. 3.6 using the equation: […]
The Kd is the equilibrium constant for the complex coming apart. A higher Kd goes with a looser complex. Consider B9, for which the affinity, expressed as Kd, was 0.996 µM.
